The values below come from a protein production outcome set (Wang et al. 2014).

The data set in a line: label from the status in PepcDB records.
As to “MMIARTLSIFIGTLLLATCSIPTRLNIPTIAITDHPKYKLLLILIDGLRADALEHGQAPQLARLASDGVHARWMTPSYPALTLPNAYTLITGLRPDHHGIVHNTMEDPLLGAFESERQEAISNGRWWGGEPIWVSAEHAGIRSATFLWPGSEASIAGTRPSRWYAYNKHISADTQITQALRWLNERGPDAPRLVILRFEQVNTAGDNFGPDSPQYAAAVNMIDSAIGRLIDSLRQHGKLTDTDVIVVSDQGIAPIPGDHAVPLERIVQLSDVHVVSDGQVLGITPLPGHESKVEAMVLGAHATYDCWRKQALPTHWHYGTHPRIPNIVCQMHEGWNALSAAQITKRNPLQMGGSSGFDPMLPSMRAVFLANGPSFMPNLLLNPINNVDIYPLLARLLGIAMAPNDGNPRALLQALRTSNTANGYTYSKRNALHLEHHHHHH”, the protein production result is “failed”.
As to “MMIHMEYYLVVSTIMMFAGIYGFFTRRNTLAILISVELMLNATDINFAVFNRFLFPGELEGYFFALFSIAISAAETAIAIAIMINIYRNIRSIQVKNLDELKW”, the protein production result is listed as “failed”.
With “MMIKASTNEFRFCFKQMNKSQHELVLGWIHQPHINEWLHGDGLSNTIKDLHEFLNDGKPWATHWIAYDNEIPFAYLITSEIEKSEEYPDGAVTLDLFICRLDYIGKGLSVQMIHEFILSQFSDTKIVLINPEISNERAVHVYKKAGFEIIGEFIASWHPVPHYKMKLCIEDLKKQRLSA”, the protein production result is “not failed”.
Consider “MMIVDPKYCSLHPVDLAIVRKVLKITDGNFVITNAEGNLLFKVKDPFFSLHEKRILMDGFGTKVLTLKGKIMTMHDRWLVFRGGSTEEVDLLYTVKRSNMVQITTKLDVFLADNIEQKKCDYRLEGVWLETSCFVYAGDSDIILAQMREKKTMQSVLFGKDNFCLTVNPNVDYAFIASLIVILFHQKDDIYPIESLWKRDITDFIC”, for which the protein production result is “failed”.
In the case of “MMKAYQREFIEFALEKQVLKFGEFTLKSGRKSPYFFNAGLFNTGRDLARLGRFYAAALVDSGIEFDVLFGPAYKGIPIATTTAVALADHHDVDTPYCFNRKEAKNHGEGGNLVGSKLEGRVMLVDDVITAGTAIRESMELIQANKADLAGVLVAIDRQEKGKGELSAIQEVERDFGCAVISIVSLTDLITYLEQQGNNTEHLEAVKAYRAQYGI”, the protein production entry is “not failed”.
On to “MMKETQQWTSKIGFVLAAAGAAVGLGAIWKFPYVAGNGGGGAFFLVFLLLTLFIGMPLLIAEFVIGRSTQKEAVTAYKVLVPNSKLYPWIGRMGVVTCFSVLSFYSVVGGWILLYLYYSVTGSFWNGAADYGQLFGETISNPLSAIGAQFIFMLCTIFVVSKGVEKGIEKASKYMMPLLFILFIAIIVRALTLDGAFAGVEFFLKPDFSKLTADTILYAMGQSFFSLTVGASVMVTYSSYLKKEEHLAKSATSIVSLTVFVTVLAGLAIFPAIFALGVKPTEGPGLLFIVLPAVFAKIPFGQFFFIMFLILFFFATLTSAISMLEIVVASVAKGNEKKRPSASLLIGILIFAVGIPSALSFGIMSDVKIFGKTFFDLVDFSVSNVLLPLGVLAISLFVPNKMSKELLMKELEVTETKGKTLFNIWFFLLRYVIPVTVIIVFLNAIGVFKMFA”, for which the protein production entry was “failed”.
Next, “MMKILGLIGGMSWESTIPYYRMINQHVKAQLGGLHSAKIILYSVDFHEIEQLQAKGDWQTAAQLLSNAAISLKHAGAEVIVVCTNTMHKVADDIEAACGLPLLHIADATAVQIKQQGIDKIGLLGTRYTMEQGFYRGRLTEKHGIEVITPDDTDREAVNRIIYEELCLGIISETSRDAYRRVIKKLEAQGVQGIIFGCTEITLLVNAQDASVPVFDTTAIHASAAADYALQ”: “not failed”.
With “MMKKAGLYIHIPFCLQKCNYCDFFSVRAGRFKNILSGHLSPFVLRLAEDIKIQADKYSINEWDTVYIGGGTPSLLSPDDLYYLSSQIPAAQKNPHREFTVEINPEDLTKDFLSAAVSGGINRFSVGIQSLNDEVLSACKRRGCRKMSLSALELLRSQKGLILSCDLIAGLNKQSLGILKDDIQTLLHFKPEHFSLYALCSNTKLPPEKDDEIAELWSYGKDILEKNSYNKYEVSNFSYKNLYKSIHNEKYWRLEDYIGVGPGAFGSIFFDRKVLHANAHANALRFSAIKNIEKWMTLKNRDEVYEYETIDEKEFIEEAFMMGLRLTEGIDRSFFKSRFGKDISVFAGKTISKWLDRNEAVLTEKRFYLTEKGFLYLNLFLQELFQEIDSLF”, the protein production result is given as “failed”.
For “MMKKHMYRLGLFKALTLALLVLLSAFVPSVLANQSRKPANLDGTTTLQSILSSSHRSEENRQRDKYRHPTQTLSFFGLRPDMTVVELWPGSGWYTEILAPYLAAKGQLIVTNFAPNDSKIPTVVFQQKLATAFQQKLEANKEVFGKIRVALINPPQELTLAPDNSVDMVVTFRNIHNWVNAGYAEQVYAAAYKALKPGGILGVEEHRAKPGISLQESIKTGYMSEDGVIAAVEKVGFKLVGKSEINANPQDTKDYPGGVWALPPTLRQGQKDRQRLVAIGESDRMTLKFIKPEANINSGSNAK”, the protein production entry is given as “failed”.
Next, “MMKMDLKKEVKEEFIRFQRNEKTESIVYERLASIEKDESNRKVLRLISAEEKAHYATLKKYTETDVAPDKLRIAKYYWLARILGITFAIKLMESSEENAHHDYAKYTDYPDLRQLANEEEVHEQKLIGLINEERLEYMGSVVLGLNDALVEFTGALAGFTLALSDSRLIALTGSITGIAAALSMASSEYLSTKSEGGETKHPIKAAIYTGIAYIITVVALVAPFILIENVLIALGVMLAMALVIIALFNYYYSVARGESFRKRFTEMAVLSFSVAGISFLIGYALKTFTGIDA”: “failed”; “MMKQNPILITGGTGTVGSRIASRLIKLGYRVRIASRKKGALADAEYVYFNWKYASSFTPALEQVKQIYLVAPVGVFDPAPYVLPFLKEAKRLGAKRVVMQSASVVSENGPVFGALHQAVREFPEWTVLRPSYFMQNFINVQHRMSIQTEGRITTASGEGKLGFIDADDIAETAVRALIDDVPHQTHHILTGPEALSYAEAAEIIGAAAGRRVEHVSISRSELQHKMEAGGLPADYAHFMAKLDEAISHGAEHRVTDTVKRVTGKEPRSLSEFAAAHAAYWTSFWTELEHHHHHH”: “failed”; “MMKTLSPLKASLFAILASSTVLVTTVSAEPSQECDHPRSEFHKRGDRMGHDGMHKMFEGLELTDTQKADIKKLFAEQRAARSDDKPTKEERLARRAEMHALITAATFDETQAKALIGAQQEKRQAQAIERMKMQNQIYNLLTPEQQAKFKARFEAHTGKEPRSLEHHHHHH”: “failed”.
Next, “MMKTMDIIIPREFVSDDQYLLQKLCVVNNDFVKEGEILALIESSKSVIDVTSPADGYVYFFSDEGDIVSVGERLALLASTKEALQVEIENSNKNSQRRKESETKSEDVSLSGVRCSKKALLLMKQHNIDVGAFDGLGMVTAQDVEHYLSSREKAVKATVAPSSVNRQKIIILGGGGHSKVCIDILRQAQSFTIAGILDSIQDIGAEVLGIPVIGRDTMPELLKTRESGISLAVNGIGLIPDHRNRCKLFERLLEAGFHLPNLIHPKASIEPSAKLGEGNQIMAGAIIGSDVTVGNYCLINSGVVVSHDCIIDDHVHLAPGALLAGAVRVGRNSLIGMGVTIYAKVTIGSNVVIANGANVFHDVPDNTVVKI”: “failed”; “MMLAGCQSEEETSQFLLACKYDAPATIAAMLDNGIDVDGQDKTGLSGLMVAAAENRRDVVELLLKRRAKPNLQTRQGVTALMLAAARGSDTAIIGDLLQAGASVNQTSIDKSTALMSAISDGGDVRNDYQHILAMKKPDAPVEEESTLDKIVGATAAKSLATGNRALMTEDMALQLAPGAFKKNVDEIVALLLKHGADVKAVNVSGESAFFLAVDHARSAETITTLANAGADTSLADKSGTTPLMLAAAGDDPDLVLALSASGVEVDKPNREGLTALQVAAGQGAPAVIAALAQRGAKVDQLSANDLSPLMLAVKMNNKANVEALLAAGASVNLSNKAGYTAIGYSRAGEVRQLLLAQHAELKGQAAHMAQSELQFCANAFADKLAYSDIARAVNNDTRPDIMRHQQSCPELGELTMLLGEFTFTPAGATYLGEPVTCKVSEYRKTFEVNCR”: “failed”; “MMLLQQFKKIITVLIQVLVIMGITYLGNVIQRYMHIPIAGSIVGLLLFFLLLQFKVIPAKWVNEGSNFFLTTMVFFFVPSVVGIMDVVPMINLNFILFFSMILLGTCCVALISGFIAEKMVKNKQDGNGVN”: “failed”.
With “MMLSSNSFSLNLSNEDYIWPLEEDQEETTDSSGPMMLSPPLPEGACFNFEDRNTVYVHSRRPEDTPKSFELYSIPEDLALDSPFPSCEQTTFFTTKPDKSFLLDIKNSSPLNIGRMQNSRS”, the protein production entry is “not failed”.
“MMLYRYTQTKLAQIASELKQTGLWSATAPSVEAMASTAPFACDLMPFEQWLQFIFIPRMQALIDAGQALPSQIAIAPMAEHLWSEQAALAPLISTLNELDILLNEPRLEHHHHHH”: the protein production result is given as “not failed”.
“MMMIFAVLGIFDFLRGEDEGESLEKYLRKLEDLLEEEFDTLVRIAGFYAEEGDTREALDYLERAYRVASEMNDEELMAFALDSMGDVYLSDRKVKTAMEYFMEALRIYTSVNSPLRADLREKIKEVEKIREAMDIASINRLREESESGMPEVDLEVIEPLLNRLVDSVQSLTLYEAGSYEDSISQIMEAYQIARDIGDTSTEASLQLLLGLYSLKNEDFDESRRYLKKAEALFRKTNNELGLAVALVLLGTLDFIRNNADGVASSFRAAVEILQKLDEKELESVTLELLNTLYSF”: the protein production result is given as “failed”.
Next, “MMMLQGSKSGSEMEVTWEDQQNINIFSRLNNRVHDLDDDIKSAKEKCENLEDAGNELILADEEMVRFQIGEVFAHVPRDDVETKIEEMKEATCKSLEKLEQEKESIVTQMAALKKVLYAKFKDSINLEED”: “failed”; “MMNDSKARYGSITRFFHWSMAILVSWQFLKFFDRINDGEHWVGETLVPWHISIGSLILVLIVLRLGWTVKEKGNRPEHGSIIGVLAKIGHGLLYVALVLMPVTGIFYMVGNGYGLSAFNLEIIAKGEEVSWLINIGSLHSYIAWGLLFLVAGHIGMAFVHQFIIKDGTLKRMM”: “failed”; “MMNTSDNHALGDFLRARRQRLDPATFGFPAGRRRTPGLRREEVAQLASISPTWYTWLEQGRGGAPSREVLERIARGLRLTTPEREHLFILAFGHPPQTRLTVTDDMTPRLQRVLDAFTIPAIIRTASW”: “failed”.
Next, “MMPLILSNTGEEVVIKKISGSDKTRTFLNSIGFVVGTNVKIVSKIDGNLIIDVKDTRVALDKKMASRIIILEHHHHHH”: “failed”; “MMPRLFLLAGLVSAPPLSLDPEPPSSIKMTYSGIVDAGSTGTRLNIYGFLDGEIRHQGLFTNTSRLASIEDDEEIKTSIRELFAHAEPFYSNIKKMPIGFYGTAGFRTLDKSRSDHVLDLIRSELKDYNLKEAEVINGVDEGKLALMALVLSNRGTDAGHRSLGIVDMGGGSTQISLLERDGKVISESIDLGITVLSLSDPDECKIEGDAEQESCASHIASKLAGVAIRPFLNSVDDLYLLSYFHDEFGKVIRSEKTSMREVKDEFYKRCNLLESHECRRLFYLISFIKSLGIEDTKAIHQIDTNNGINITWASGKGYELNKKYN”: “failed”.
